Target: T1, recombinant rat apolipoprotein E (rat), P02650
T1 chain: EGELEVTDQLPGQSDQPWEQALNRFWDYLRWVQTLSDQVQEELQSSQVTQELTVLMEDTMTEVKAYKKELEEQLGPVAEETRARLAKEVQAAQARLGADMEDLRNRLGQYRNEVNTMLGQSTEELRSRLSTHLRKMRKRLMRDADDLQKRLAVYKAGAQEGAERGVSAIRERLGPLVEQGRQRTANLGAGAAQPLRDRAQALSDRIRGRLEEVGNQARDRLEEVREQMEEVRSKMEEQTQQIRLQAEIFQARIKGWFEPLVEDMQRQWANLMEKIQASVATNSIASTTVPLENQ
Assay: SEC
Settings: remark: other sources report otherwise

stoichiometry N: 4
B1: recombinant rat apolipoprotein E, P02650 19-312 (natural protein)
chain: EGELEVTDQLPGQSDQPWEQALNRFWDYLRWVQTLSDQVQEELQSSQVTQELTVLMEDTMTEVKAYKKELEEQLGPVAEETRARLAKEVQAAQARLGADMEDLRNRLGQYRNEVNTMLGQSTEELRSRLSTHLRKMRKRLMRDADDLQKRLAVYKAGAQEGAERGVSAIRERLGPLVEQGRQRTANLGAGAAQPLRDRAQALSDRIRGRLEEVGNQARDRLEEVREQMEEVRSKMEEQTQQIRLQAEIFQARIKGWFEPLVEDMQRQWANLMEKIQASVATNSIASTTVPLENQ

— publication PMC3543869
